Assay results taken from the supplement of paper PMC9732359.
± gives the uncertainty stated by the source.

Assay: protein stability index of a GFP-peptide fusion (yeast GPS) (PSI 1-4); higher = more stable; sorted into four equal gates, so the index is relative within each strain
Summary of the method: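 Yeast carrying a pooled library were grown to mid-log phase in leucine-free medium. Each library plasmid expresses Cherry and has a tiled 17-residue yeast protein peptide fused downstream of GFP. Cells were sorted into four equal gates by GFP/Cherry ratio, and plasmids from each gate were PCR-amplified, Illumina-sequenced and assigned to strains by barcode. Summing, across gates, the read frequency times the gate number gave each peptide's protein stability index.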

Sequence | protein stability index (doa10∆) | protein stability index (pdr5∆) | protein stability index (san1∆) | protein stability index (ubr1∆)
LQLETPAEVGRAIRSEK [BRR2] | 2.08 ± 0.11 | 2.92 ± 0.063 | 1.66 ± 0.11 | –
RNAQAQREAAAEYAQLL [RPS6A] | 2.88 ± 0.23 | 3.31 ± 0.2 | 2.85 ± 0.15 | 3.2 ± 0.12
YGHVFLGITGLATDVTT [PUP3] | 1.93 ± 0.13 | 2.24 ± 0.098 | 2.25 ± 0.15 | 2.29 ± 0.1
PIPDARNAALRAKAEAA [SCL1] | 2.39 ± 0.14 | 2.69 ± 0.11 | 2.44 ± 0.13 | 2.34 ± 0.092
NGGKFSKSNLIHNYDSK [RGR1] | 2.4 ± 0.058 | 2.71 ± 0.06 | 3.11 ± 0.047 | 2.7 ± 0.064
LTSNISSLVRSCGEEEF [REC8] | 3.33 ± 0.17 | 2.78 ± 0.13 | 2.21 ± 0.13 | 3.25 ± 0.13
NEKKTETNAKPFSFSSA [YLR335W/NUP2] | 3.32 ± 0.11 | 3.28 ± 0.088 | 3.33 ± 0.041 | 3.36 ± 0.079
IPKLKPAPINSLSRDFV [SNU114] | 2.92 ± 0.052 | 2.8 ± 0.061 | 2.68 ± 0.039 | 2.75 ± 0.047
TLKPTFSFTEPAQKDSS [YOR098C/NUP1] | 2.78 ± 0.059 | 3.05 ± 0.067 | 2.99 ± 0.065 | 2.53 ± 0.037
ESNRQSVIVDSKVTVPP [ESC2] | 2.47 ± 0.11 | 2.87 ± 0.082 | 2.81 ± 0.079 | 2.81 ± 0.048
IVDKYIGESARIIREMF [RPT4] | 2.5 ± 0.14 | 2.6 ± 0.088 | 2.48 ± 0.11 | 2.44 ± 0.079
ESSYTEVTKLLKNEGID [SMC4] | 3.1 ± 0.082 | 3.17 ± 0.15 | – | 3.49 ± 0.098
MIVPVRCFSCGKVVGDK [RPB10] | 2.64 ± 0.17 | 2.59 ± 0.12 | 2.13 ± 0.1 | 2.66 ± 0.092
TLSYDDISAAIVHSSDG [DLS1] | 2.65 ± 0.046 | 2.82 ± 0.053 | 2.72 ± 0.04 | 2.66 ± 0.046
REMRRKVYAQLLESYKT [RPN7] | 2.36 ± 0.081 | 2.96 ± 0.14 | 2.32 ± 0.18 | 2.7 ± 0.09
PVSTASYRLLPQINILQ [RPC40] | 1.61 ± 0.053 | 1.66 ± 0.05 | 1.63 ± 0.07 | 1.97 ± 0.051
HGIKDIPIGHVHVIHFQ [AAR2] | 2.89 ± 0.06 | 2.86 ± 0.058 | 2.87 ± 0.059 | 2.75 ± 0.041
IRGAVGNSEAIPGLSAG [RTT102] | 3.23 ± 0.057 | 3.36 ± 0.068 | 3.26 ± 0.088 | 3.43 ± 0.053
LARGLRESTKALTRGEA [RPS12] | 3.28 ± 0.14 | 3.65 ± 0.12 | 2.94 ± 0.24 | 3.37 ± 0.044
SFNIPRLTFKPWVVYLQ [YMR129W/POM152] | 1.2 ± 0.055 | 1.29 ± 0.055 | 1.09 ± 0.1 | 1.04 ± 0.042
EVDEKPTETYSDVGGLD [RPT5] | 3.35 ± 0.082 | 3.3 ± 0.07 | 3.16 ± 0.058 | 3.23 ± 0.059
NSKMPTRFPPAVFYTPK [PRP8] | 2.76 ± 0.056 | 3.09 ± 0.068 | 2.94 ± 0.054 | 2.93 ± 0.061
ASIESADILCPLLESFI [IRR1] | 3.19 ± 0.14 | 2.48 ± 0.11 | – | 2.85 ± 0.13
CINELDNWNAPLIMATC [RPO31] | 3.18 ± 0.16 | 2.66 ± 0.14 | 3.3 ± 0.07 | 3.54 ± 0.12
ATNTFGSNQQSSTGGGL [YGR119C/NUP57] | 2.89 ± 0.12 | 3.23 ± 0.076 | 3.15 ± 0.13 | 2.9 ± 0.075
LNAANYNIDANVIDTQR [ECM29] | – | 2.37 ± 0.15 | 3.18 ± 0.12 | 2.85 ± 0.12
RKVEKEKNEKEREIKRR [UBP6] | 3.32 ± 0.056 | 3.27 ± 0.054 | 3.09 ± 0.053 | 3.17 ± 0.068

Sequence | protein stability index (doa10∆) | protein stability index (pdr5∆) | protein stability index (san1∆) | protein stability index (ubr1∆)
GVEEEEELKDSEINEIL [SNF2] | 3.14 ± 0.16 | 3.33 ± 0.11 | 2.31 ± 0.12 | 2.72 ± 0.075
RLAKSTENEIPNLIEKM [BRR2] | 1.62 ± 0.08 | 1.5 ± 0.052 | 1.75 ± 0.087 | 1.68 ± 0.058
SLNNSDSLISGVKQKIT [BRR2] | 2 ± 0.085 | 1.87 ± 0.056 | 1.61 ± 0.16 | 2.31 ± 0.049
TKYSAKYAQDGAGIERE [RPL3] | 3.04 ± 0.15 | 3.48 ± 0.22 | 3.24 ± 0.27 | 3.19 ± 0.15
EHFSHFGHIMEDFQVLR [YDL088C/ASM4] | 3.03 ± 0.063 | 2.92 ± 0.045 | 2.54 ± 0.059 | 2.44 ± 0.045
LKSQMDTSKALLNVSVN [SKI6] | 3.22 ± 0.13 | 2.92 ± 0.12 | 3.23 ± 0.13 | 3.07 ± 0.053
ESTETGYVIKVFNNGIV [DIS3] | 2.34 ± 0.19 | 3.08 ± 0.21 | 2.13 ± 0.14 | 1.21 ± 0.24
LSEDVNLETLVTTKDDL [RPT2] | 3.01 ± 0.13 | 2.87 ± 0.17 | 2.57 ± 0.15 | 2.89 ± 0.096
KQGRIKNATEELLRLAN [CSN12] | 3.15 ± 0.17 | 3 ± 0.13 | 2.6 ± 0.14 | 3.36 ± 0.22
TKTTGKCGSVTVRLIPA [RPS2] | 1.34 ± 0.11 | 1.7 ± 0.082 | 1.35 ± 0.17 | 1.71 ± 0.11
IMYQQMLKYRRLFIGDQ [SNF2] | 1.45 ± 0.052 | 1.22 ± 0.04 | 1.3 ± 0.12 | 1.42 ± 0.03
GELRSYLKGATGHSQGL [FAS1] | – | – | – | 3.87 ± 0.22
WQELARSTDEFNGAQLK [RPT5] | 2.52 ± 0.16 | 2.73 ± 0.2 | 2.65 ± 0.24 | 2.29 ± 0.17
KSKERSSQFVRLASEPG [YMR129W/POM152] | 2.65 ± 0.14 | 2.62 ± 0.13 | 3.16 ± 0.1 | 2.8 ± 0.074
IKKIVADLKKGKDLSPA [QCR2] | 3.5 ± 0.24 | 3.15 ± 0.2 | 3.11 ± 0.26 | –
MAGLSFDNYQRNNFLAE [PUP1] | 3.61 ± 0.17 | 3.58 ± 0.1 | 3.29 ± 0.084 | 3.39 ± 0.092
TFAQEKLNTFENDLLQE [SMC3] | 3.33 ± 0.18 | 3.26 ± 0.12 | 3.12 ± 0.13 | 2.81 ± 0.13
TLFSSIEPQVINYLALN [ECM29] | 2.31 ± 0.07 | 2.64 ± 0.096 | 2.29 ± 0.21 | 2.09 ± 0.082
YVGEVIKIVSDKKVLVK [RPT6] | 3.03 ± 0.058 | 2.9 ± 0.055 | 3.08 ± 0.067 | 2.94 ± 0.073
LIENCKQVLDVDPVYKD [FAS2] | 3.14 ± 0.17 | 3.21 ± 0.12 | 3.33 ± 0.076 | 3.37 ± 0.068
NNLKNSGNSANNMNVNM [GAL11] | 2.92 ± 0.046 | 2.9 ± 0.041 | 2.87 ± 0.035 | 3.02 ± 0.039
SFTNYITRSFKEPRLVI [RPS0A] | 2.74 ± 0.09 | 2.79 ± 0.068 | 2.55 ± 0.068 | 2.83 ± 0.074
VADAKQLGEWAGLGKID [RPS12] | 3.67 ± 0.28 | – | 3.46 ± 0.24 | 3.35 ± 0.13
TLAITTVTNSKFRSSIL [RPN2] | 2.19 ± 0.046 | 2.3 ± 0.047 | 2.17 ± 0.054 | 2.52 ± 0.045
VSKSEPKFFLGEENRVR [QCR2] | 3.42 ± 0.097 | 3.18 ± 0.077 | 3.13 ± 0.053 | 3.26 ± 0.048
IYSPLHSFIKMLQMKGK [SIR2] | 2.1 ± 0.064 | 1.79 ± 0.058 | 1.91 ± 0.14 | 1.88 ± 0.051
